Values of other authors, collected in article PMC4191058.

Molecular target: NS1 (Influenza A virus) (UniProt Q8QPI8)

NS1 (from UniProt Q8QPI8)
Kd: 90 µM
